From patent US20240109955A1 come the findings set out here.

Experiment in all cases: cell-based or functional assay
Assay [1] concerns the target SARS-CoV-2 spike (S) protein, Omicron variant BA.1 (SARS-CoV-2) (UniProt P0DTC2).
Assay [2] has as its target SARS-CoV-2 spike (S) protein, Omicron variant BA.2 (SARS-CoV-2) (UniProt P0DTC2).
Assay [3] addresses SARS-CoV-2 spike (S) protein, Omicron variant BA.2.12.1 (SARS-CoV-2) (UniProt P0DTC2).
Assay [4] addresses SARS-CoV-2 spike protein, Alpha variant (B.1.1.7) (SARS-CoV-2).
Assay [5] has as its target SARS-CoV-2 spike protein, Beta variant 1 (B.1.351 v1) (SARS-CoV-2).
Assay [6] has as its target SARS-CoV-2 spike protein, C.1.2 variant (SARS-CoV-2).
Assay [7] has as its target SARS-CoV-2 spike protein, Delta variant (B.1.617.2) (SARS-CoV-2).
The target in assay [8] is SARS-CoV-2 spike protein, Gamma variant (P.1) (SARS-CoV-2).
Assay [9] concerns the target SARS-CoV-2 spike protein, Mu variant (B.1.621) (SARS-CoV-2).

Sequence of MX 490 (A23-58H/B1-182L × A19-46) (bispecific antibody) (chain): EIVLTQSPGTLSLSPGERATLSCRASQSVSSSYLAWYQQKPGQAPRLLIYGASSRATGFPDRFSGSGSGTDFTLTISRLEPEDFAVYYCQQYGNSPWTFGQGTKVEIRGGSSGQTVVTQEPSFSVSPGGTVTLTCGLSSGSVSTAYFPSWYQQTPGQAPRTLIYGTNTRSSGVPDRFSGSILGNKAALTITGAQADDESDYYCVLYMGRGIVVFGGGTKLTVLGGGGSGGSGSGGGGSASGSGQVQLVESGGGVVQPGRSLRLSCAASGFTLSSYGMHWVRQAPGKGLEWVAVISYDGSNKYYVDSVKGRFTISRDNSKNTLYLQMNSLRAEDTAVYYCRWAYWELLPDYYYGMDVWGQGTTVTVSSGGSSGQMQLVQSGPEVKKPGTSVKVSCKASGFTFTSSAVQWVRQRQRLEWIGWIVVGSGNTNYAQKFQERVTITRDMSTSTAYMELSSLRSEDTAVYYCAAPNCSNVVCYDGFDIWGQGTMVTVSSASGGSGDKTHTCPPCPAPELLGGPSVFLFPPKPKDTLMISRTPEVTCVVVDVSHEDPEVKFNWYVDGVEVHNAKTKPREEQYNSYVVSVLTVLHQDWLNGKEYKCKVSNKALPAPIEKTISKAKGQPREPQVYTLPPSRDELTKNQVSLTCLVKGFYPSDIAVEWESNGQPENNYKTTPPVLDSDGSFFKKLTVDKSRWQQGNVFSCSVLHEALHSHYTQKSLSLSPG
Sequence of MX492 (A19-46 × A23-58H/B1-182L) (bispecific antibody) (chain): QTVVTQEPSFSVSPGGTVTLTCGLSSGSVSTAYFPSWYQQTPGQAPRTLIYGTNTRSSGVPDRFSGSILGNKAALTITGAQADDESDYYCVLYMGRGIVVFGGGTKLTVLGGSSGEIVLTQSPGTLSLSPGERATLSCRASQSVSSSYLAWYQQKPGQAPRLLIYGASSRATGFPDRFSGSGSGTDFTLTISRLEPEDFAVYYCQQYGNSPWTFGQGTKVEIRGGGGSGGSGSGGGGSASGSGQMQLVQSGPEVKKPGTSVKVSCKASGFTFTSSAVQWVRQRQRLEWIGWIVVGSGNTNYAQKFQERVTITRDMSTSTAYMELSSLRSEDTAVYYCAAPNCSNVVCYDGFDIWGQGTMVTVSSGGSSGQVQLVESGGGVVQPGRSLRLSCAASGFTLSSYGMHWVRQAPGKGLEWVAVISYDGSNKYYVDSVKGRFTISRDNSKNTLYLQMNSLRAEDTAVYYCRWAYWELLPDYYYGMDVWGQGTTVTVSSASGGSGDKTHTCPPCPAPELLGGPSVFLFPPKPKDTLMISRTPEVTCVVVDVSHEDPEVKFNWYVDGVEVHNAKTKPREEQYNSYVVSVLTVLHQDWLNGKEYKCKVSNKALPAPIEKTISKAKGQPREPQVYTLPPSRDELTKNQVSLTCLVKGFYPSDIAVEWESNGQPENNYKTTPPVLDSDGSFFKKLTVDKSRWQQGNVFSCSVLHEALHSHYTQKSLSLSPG
Sequence of MX413 (A19-61 × A23-58H/B1-182L) (bispecific antibody) (chain): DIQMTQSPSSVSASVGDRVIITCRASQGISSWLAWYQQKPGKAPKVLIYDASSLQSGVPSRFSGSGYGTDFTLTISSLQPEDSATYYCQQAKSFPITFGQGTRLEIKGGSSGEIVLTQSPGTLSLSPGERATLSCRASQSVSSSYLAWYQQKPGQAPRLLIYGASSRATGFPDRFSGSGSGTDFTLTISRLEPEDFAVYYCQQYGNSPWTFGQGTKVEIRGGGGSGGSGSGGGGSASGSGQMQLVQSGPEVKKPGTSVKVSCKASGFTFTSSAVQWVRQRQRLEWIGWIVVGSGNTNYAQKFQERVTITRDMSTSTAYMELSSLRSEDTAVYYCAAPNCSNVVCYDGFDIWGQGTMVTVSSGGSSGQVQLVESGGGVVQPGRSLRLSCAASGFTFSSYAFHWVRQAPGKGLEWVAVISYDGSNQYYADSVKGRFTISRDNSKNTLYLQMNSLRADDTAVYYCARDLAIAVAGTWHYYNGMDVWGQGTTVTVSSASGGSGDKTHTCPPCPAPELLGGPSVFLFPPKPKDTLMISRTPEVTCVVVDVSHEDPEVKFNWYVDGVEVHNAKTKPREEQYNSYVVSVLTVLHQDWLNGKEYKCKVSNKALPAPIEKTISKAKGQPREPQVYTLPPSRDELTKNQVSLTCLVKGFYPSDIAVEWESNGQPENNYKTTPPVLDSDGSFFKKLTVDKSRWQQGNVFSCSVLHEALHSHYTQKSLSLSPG
Sequence of MX468 (A19-61 × A23-58H/B1-182L CL-CH1) (bispecific antibody) (chain): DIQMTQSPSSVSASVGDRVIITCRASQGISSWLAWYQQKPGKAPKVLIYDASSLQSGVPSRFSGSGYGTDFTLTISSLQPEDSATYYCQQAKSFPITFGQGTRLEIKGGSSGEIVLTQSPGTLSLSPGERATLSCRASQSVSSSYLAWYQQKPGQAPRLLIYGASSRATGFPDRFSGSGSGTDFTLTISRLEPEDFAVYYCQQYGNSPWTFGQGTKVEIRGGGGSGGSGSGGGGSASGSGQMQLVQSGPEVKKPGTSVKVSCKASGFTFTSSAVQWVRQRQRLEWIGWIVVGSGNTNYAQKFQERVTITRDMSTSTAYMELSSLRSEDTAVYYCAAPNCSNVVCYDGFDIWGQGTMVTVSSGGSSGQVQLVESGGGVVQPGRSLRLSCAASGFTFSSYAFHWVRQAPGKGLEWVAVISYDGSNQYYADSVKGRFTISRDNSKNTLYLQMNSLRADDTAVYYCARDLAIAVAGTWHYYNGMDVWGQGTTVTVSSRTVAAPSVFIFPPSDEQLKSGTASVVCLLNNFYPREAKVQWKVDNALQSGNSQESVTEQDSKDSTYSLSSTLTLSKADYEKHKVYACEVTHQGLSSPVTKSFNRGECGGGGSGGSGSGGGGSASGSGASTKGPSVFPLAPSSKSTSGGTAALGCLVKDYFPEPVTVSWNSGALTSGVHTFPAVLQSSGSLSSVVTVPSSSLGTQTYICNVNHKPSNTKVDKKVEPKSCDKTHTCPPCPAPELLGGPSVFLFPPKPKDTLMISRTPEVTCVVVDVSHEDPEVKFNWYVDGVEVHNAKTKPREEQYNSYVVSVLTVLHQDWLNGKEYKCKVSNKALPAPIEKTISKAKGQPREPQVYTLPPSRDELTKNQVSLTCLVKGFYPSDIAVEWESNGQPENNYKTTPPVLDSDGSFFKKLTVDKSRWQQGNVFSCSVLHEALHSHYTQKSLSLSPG
Sequence of MX491 (A23-58H/B1-182L × A19-46 CL-CH1) (bispecific antibody) (chain): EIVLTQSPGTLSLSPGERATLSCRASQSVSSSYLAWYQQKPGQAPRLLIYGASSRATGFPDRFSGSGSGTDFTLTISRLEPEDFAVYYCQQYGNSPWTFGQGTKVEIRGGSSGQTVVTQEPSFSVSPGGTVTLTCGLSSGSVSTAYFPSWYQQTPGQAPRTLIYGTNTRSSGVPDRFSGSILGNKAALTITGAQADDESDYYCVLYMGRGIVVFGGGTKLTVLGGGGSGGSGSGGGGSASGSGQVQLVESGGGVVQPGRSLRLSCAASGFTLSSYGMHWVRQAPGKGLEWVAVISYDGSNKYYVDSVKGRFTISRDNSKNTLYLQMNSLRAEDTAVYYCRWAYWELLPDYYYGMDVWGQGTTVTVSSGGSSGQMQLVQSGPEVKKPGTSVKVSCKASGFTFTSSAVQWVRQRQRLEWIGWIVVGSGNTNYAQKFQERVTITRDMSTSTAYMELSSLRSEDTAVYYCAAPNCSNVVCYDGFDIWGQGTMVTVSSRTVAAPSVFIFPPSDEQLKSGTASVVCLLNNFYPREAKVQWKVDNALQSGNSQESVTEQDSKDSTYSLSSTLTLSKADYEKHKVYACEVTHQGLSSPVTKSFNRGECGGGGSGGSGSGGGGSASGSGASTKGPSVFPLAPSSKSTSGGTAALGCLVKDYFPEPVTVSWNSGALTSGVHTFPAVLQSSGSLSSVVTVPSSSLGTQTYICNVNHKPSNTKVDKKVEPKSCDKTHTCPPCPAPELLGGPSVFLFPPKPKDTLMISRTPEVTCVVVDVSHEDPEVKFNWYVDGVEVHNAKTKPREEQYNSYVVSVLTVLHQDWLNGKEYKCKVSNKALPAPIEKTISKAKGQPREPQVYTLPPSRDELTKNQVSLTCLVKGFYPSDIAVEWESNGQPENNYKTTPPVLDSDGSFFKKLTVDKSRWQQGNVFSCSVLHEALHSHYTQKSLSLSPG
Sequence of MX180 (B1-182 × A19-46) (bispecific antibody) (chain): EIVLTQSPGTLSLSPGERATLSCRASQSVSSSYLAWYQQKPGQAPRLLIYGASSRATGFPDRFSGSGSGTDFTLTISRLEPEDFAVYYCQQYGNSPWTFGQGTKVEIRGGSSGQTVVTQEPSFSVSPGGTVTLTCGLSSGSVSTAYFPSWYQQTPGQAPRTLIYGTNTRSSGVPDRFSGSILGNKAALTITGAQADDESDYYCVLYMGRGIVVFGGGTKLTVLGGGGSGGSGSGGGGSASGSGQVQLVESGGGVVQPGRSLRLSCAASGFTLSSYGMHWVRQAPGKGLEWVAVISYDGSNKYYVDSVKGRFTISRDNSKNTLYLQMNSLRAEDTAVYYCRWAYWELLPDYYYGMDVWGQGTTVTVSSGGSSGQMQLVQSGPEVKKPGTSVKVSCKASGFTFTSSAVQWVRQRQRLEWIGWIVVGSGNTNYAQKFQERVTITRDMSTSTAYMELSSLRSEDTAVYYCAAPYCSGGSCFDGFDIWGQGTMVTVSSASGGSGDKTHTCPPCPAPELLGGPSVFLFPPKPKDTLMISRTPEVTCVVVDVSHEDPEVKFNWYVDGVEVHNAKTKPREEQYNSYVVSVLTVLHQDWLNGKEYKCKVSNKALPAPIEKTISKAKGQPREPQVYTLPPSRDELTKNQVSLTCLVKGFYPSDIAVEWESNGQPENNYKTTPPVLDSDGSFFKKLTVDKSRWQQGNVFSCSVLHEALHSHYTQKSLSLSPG

As for “MX467 (A23-58H/B1-182L × A19-61 CL-CH1) (bispecific antibody)”, the IC50, pseudovirus neutralization is 18.5 nM in [1], 0.0373 nM in [2] and 0.0181 nM in [3]. The IC80, pseudovirus neutralization in assay [1] was found to be 69.4 nM; in [2], 0.0738 nM; in assay [3] it was 0.127 nM.

In the case of A23-58H/B1-182L mAb (antibody), the IC50, pseudovirus neutralization turned out to be 0.364 nM in assay [1]; 0.544 nM in assay [2]; 0.83 nM in assay [3]; 0.0174 nM in [4]; 0.0305 nM in [5]; 0.0207 nM in [6]. Moreover, the values for the IC50, pseudovirus neutralization in [7], in assay [8] and in [9] were 0.0104 nM, 0.0116 nM and 0.0402 nM, respectively. Moreover, the IC80, pseudovirus neutralization in [1] stood at 1.39 nM; in assay [2], 2.48 nM; in assay [3], 3.27 nM; in assay [4], 0.0376 nM; in assay [5], 0.0966 nM; in assay [6] it was 0.0348 nM. Further, the IC80, pseudovirus neutralization in assay [7] was 0.0205 nM; in [8], 0.0237 nM; in assay [9], 0.108 nM.

For “MX413 (A19-61 × A23-58H/B1-182L) (bispecific antibody)”, the IC50, pseudovirus neutralization was 6.58 nM in assay [1]; 0.0141 nM in assay [2]; 0.0149 nM in assay [3]; 0.0547 nM in [4]; 0.0386 nM in assay [5]; 0.0109 nM in [6]. For the same substance, the IC50, pseudovirus neutralization in [7] stood at 0.0193 nM; in assay [8], 0.025 nM; in [9], 0.089 nM. In addition, the IC80, pseudovirus neutralization in assay [1] worked out at 20.5 nM; in assay [2] it was 0.0466 nM; in assay [3] it was 0.0614 nM; in assay [4], 0.141 nM; in assay [5] it was 0.092 nM; in assay [6], 0.026 nM. Moreover, the IC80, pseudovirus neutralization in assay [7] was determined as 0.0655 nM; in assay [8], 0.0547 nM; in assay [9] it was 0.166 nM.

With “MX409 (A23-58H/B1-182L Tetravalent) (antibody)”, the IC50, pseudovirus neutralization in assay [1] stood at 2.03 nM; in assay [2], 4.9 nM; in assay [3] it was 8.96 nM; in assay [4], 0.0139 nM; in assay [5] it was 0.0073 nM; in assay [6], 0.005 nM. The results for the IC50, pseudovirus neutralization in assay [7], in [8] and in [9] were 0.00313 nM, 0.00182 nM and 0.0046 nM, respectively. Moreover, the IC80, pseudovirus neutralization in assay [1] is above 66.7 nM; in assay [2], above 66.7 nM; in assay [3] it was 52.7 nM; in [4], 0.0286 nM; in [5], 0.0175 nM; in [6], 0.0099 nM. The values for the IC80, pseudovirus neutralization in assay [7], in assay [8] and in assay [9] were 0.00882 nM, 0.00565 nM and 0.0124 nM, respectively.

For the substance “MX180 (B1-182 × A19-46) (bispecific antibody)”, the IC50, pseudovirus neutralization in assay [1] was 0.0187 nM; in assay [2] it was 0.041 nM; in assay [3] it was 0.584 nM. Also, the IC80, pseudovirus neutralization turned out to be 0.0652 nM in assay [1], 0.103 nM in assay [2] and 2.82 nM in assay [3].

On to “MX466 (A23-58H/B1-182L Cl-CH1 Tetravalent) (antibody)”, for which the IC50, pseudovirus neutralization in [1] is 0.57 nM; in assay [2], 2.47 nM; in [3] it was 0.586 nM. In addition, the IC80, pseudovirus neutralization in assay [1] was found to be 8.23 nM; in [2] it was 44.2 nM; in [3] it was 18 nM.

In the case of “MX491 (A23-58H/B1-182L × A19-46 CL-CH1) (bispecific antibody)”, the results for the IC50, pseudovirus neutralization in [1], in [2] and in assay [3] were 0.0316 nM, 0.0489 nM and 1.44 nM, respectively. Besides, the IC80, pseudovirus neutralization in [1] was 0.0928 nM; in [2] it was 0.114 nM; in assay [3], 7.81 nM.

On to A23-58 mAb (antibody), for which the IC50, pseudovirus neutralization is 0.853 nM in assay [1]; 1.68 nM in assay [2]; 0.647 nM in assay [3]; 0.0329 nM in [4]; 0.123 nM in assay [5]; 0.0287 nM in [6]. The values for the IC50, pseudovirus neutralization in assay [7], in [8] and in assay [9] were 0.0133 nM, 0.0097 nM and 0.124 nM, respectively. The IC80, pseudovirus neutralization in assay [1] stood at 4.24 nM; in [2] it was 5.69 nM; in assay [3], 4.96 nM; in [4] it was 0.104 nM; in assay [5], 0.339 nM; in [6], 0.0656 nM. Besides, the figures for the IC80, pseudovirus neutralization in assay [7], in [8] and in assay [9] were 0.0358 nM, 0.0437 nM and 0.26 nM, respectively.

As for “MX493 (A19-46 × A23-58H/B1-182L CL-CH1) (bispecific antibody)”, the IC50, pseudovirus neutralization amounted to 0.0158 nM in [1], 0.02 nM in assay [2] and 0.0331 nM in assay [3]. Further, the values for the IC80, pseudovirus neutralization in assay [1], in assay [2] and in assay [3] were 0.0387 nM, 0.0464 nM and 0.0858 nM, respectively.

As to “MX468 (A19-61 × A23-58H/B1-182L CL-CH1) (bispecific antibody)”, the IC50, pseudovirus neutralization turned out to be 1.33 nM in assay [1], 0.0289 nM in [2] and 0.0224 nM in assay [3]. Also, the IC80, pseudovirus neutralization is 4.06 nM in assay [1], 0.0617 nM in assay [2] and 0.0698 nM in assay [3].

On to “MX492 (A19-46 × A23-58H/B1-182L) (bispecific antibody)”, for which the IC50, pseudovirus neutralization amounted to 0.0058 nM in assay [1], 0.0201 nM in assay [2] and 0.107 nM in assay [3]. Further, the IC80, pseudovirus neutralization was 0.0369 nM in [1], 0.0451 nM in [2] and 0.93 nM in assay [3].

Turning to “MX179 (A19-46 × B1-182) (bispecific antibody)”, the IC50, pseudovirus neutralization in [1] was 0.0068 nM; in assay [2], 0.0137 nM; in [3], 0.167 nM. Further, the IC80, pseudovirus neutralization in [1] stood at 0.0193 nM; in assay [2] it was 0.0389 nM; in [3], 0.929 nM.

As to “MX 490 (A23-58H/B1-182L × A19-46) (bispecific antibody)”, the IC50, pseudovirus neutralization in [1] was 0.22 nM; in assay [2] it was 0.392 nM; in [3], above 6.7 nM. Further, the IC80, pseudovirus neutralization in assay [1] was 0.484 nM; in [2], 0.896 nM; in assay [3], above 6.7 nM.
